Results reported in patent US20240254246A1 (PROMETHEUS BIOSCIENCES, published 2024).

T1: recombinant human CD30L (human, UniProt P32971 63-234)
T1 construct: Purified recombinant protein of ELISA, BLI, Carterra and KinExA; also called rhCD30L; huCD30L
T1 sequence (looked up): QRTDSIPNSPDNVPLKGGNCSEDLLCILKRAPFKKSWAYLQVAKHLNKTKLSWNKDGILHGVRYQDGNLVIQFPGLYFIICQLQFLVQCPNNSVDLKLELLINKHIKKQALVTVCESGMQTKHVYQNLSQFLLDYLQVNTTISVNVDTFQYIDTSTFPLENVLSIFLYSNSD

T2: recombinant cynomolgus CD30L (cynomolgus, UniProt A0A7N9CVX7 63-234)
T2 construct: Purified recombinant protein; also called rcyCD30L; cyno CD30L
T2 sequence: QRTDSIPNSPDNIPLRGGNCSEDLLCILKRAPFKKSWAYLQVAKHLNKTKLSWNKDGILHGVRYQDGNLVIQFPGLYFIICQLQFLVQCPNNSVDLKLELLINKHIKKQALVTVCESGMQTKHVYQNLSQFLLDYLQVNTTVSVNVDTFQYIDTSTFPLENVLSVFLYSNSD

T3: recombinant mouse CD30L (mouse, UniProt P32972 68-239)
T3 construct: Purified recombinant protein; also called rmCD30L
T3 sequence (looked up): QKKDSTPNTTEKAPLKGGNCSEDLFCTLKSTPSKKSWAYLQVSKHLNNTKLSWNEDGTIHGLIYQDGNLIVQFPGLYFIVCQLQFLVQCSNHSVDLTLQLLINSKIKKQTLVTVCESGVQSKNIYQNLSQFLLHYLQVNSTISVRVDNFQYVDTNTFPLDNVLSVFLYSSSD

T4: human CD30L expressed on B16 cells (human, UniProt P32971 1-234)
T4 construct: whole, on cells; B16 cell line transfected to express human CD30L; also called B16-huCD30L; B16-rhCD30L
T4 sequence (looked up): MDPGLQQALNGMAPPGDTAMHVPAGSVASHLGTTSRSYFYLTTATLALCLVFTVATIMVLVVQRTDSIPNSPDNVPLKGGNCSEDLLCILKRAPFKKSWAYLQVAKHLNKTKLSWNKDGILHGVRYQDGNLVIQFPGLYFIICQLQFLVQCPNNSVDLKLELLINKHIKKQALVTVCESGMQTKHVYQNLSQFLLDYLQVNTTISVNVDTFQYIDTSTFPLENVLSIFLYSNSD

T5: cynomolgus CD30L expressed on HEK293 cells (cynomolgus, UniProt A0A7N9CVX7 1-234)
T5 sequence: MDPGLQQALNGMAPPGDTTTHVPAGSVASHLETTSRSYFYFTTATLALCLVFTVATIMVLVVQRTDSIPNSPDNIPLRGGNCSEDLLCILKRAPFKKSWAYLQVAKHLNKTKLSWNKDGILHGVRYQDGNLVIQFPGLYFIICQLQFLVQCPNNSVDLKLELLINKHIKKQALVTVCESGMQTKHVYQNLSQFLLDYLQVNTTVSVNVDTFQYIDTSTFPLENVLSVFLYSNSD

T6: CDH13 (human, UniProt P55290 139-693)
T6 construct: whole, on cells; also called hit #16
T6 sequence (looked up): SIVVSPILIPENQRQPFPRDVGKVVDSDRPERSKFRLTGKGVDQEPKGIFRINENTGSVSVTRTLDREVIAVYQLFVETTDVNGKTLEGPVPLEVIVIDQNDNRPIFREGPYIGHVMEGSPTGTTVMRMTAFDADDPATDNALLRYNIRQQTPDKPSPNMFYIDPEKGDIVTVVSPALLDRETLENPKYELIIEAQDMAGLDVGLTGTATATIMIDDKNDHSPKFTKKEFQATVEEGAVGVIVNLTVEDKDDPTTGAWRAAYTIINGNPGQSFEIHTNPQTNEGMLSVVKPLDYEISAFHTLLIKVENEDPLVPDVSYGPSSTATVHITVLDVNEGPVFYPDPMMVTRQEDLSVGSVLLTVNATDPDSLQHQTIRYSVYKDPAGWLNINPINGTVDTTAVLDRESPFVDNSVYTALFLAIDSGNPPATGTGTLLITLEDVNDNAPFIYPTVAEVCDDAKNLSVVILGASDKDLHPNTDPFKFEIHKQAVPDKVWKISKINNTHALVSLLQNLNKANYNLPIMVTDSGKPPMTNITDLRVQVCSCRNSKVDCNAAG

T7: recombinant cynomolgus CD30L protein (cynomolgus, UniProt A0A7N9CVX7 63-234)
T7 construct: Recombinant protein used in ELISA; also called cyCD30L
T7 sequence: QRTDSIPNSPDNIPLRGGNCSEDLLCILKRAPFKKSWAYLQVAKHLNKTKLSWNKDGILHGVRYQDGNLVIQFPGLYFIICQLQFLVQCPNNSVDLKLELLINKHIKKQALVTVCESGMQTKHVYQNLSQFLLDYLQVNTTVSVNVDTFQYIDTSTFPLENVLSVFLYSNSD

T8: recombinant human CD30L protein (human, UniProt P32971 63-234)
T8 construct: Recombinant protein used in ELISA; also called huCD30L
T8 sequence (looked up): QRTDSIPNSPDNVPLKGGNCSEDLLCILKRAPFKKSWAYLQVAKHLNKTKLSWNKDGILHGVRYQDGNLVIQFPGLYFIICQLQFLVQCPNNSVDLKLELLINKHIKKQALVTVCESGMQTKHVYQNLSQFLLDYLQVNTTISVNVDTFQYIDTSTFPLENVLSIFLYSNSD


Key:
[1] = target: T1, recombinant human CD30L; experiment: ELISA on recombinant protein
[2] = target: T2, recombinant cynomolgus CD30L; experiment: ELISA on recombinant protein
[3] = target: T3, recombinant mouse CD30L; experiment: ELISA on recombinant protein
[4] = target: T1, recombinant human CD30L; experiment: recombinant blocking ELISA; competitor CD30
[5] = target: T1, recombinant human CD30L; experiment: ELISA, binding to rhCD30L (OD 450 nm)
[6] = target: T4, human CD30L expressed on B16 cells; experiment: flow cytometry on B16 cells expressing hCD30L
[7] = target: T1, recombinant human CD30L; experiment: BLI, CD30 association to CD30L held by captured IgG; competitor rhCD30
Method: Briefly, individual anti-human biosensors were loaded with purified IgG (normalized to 10 μg/mL) and a baseline was measured for each biosensor. Biosensors were saturated with biotin and with polyclonal hulgG and a baseline was measured. Loaded biosensors were then allowed to bind CD30L and the association rate was measured for the binding. Biosensors were moved to buffer wells to measure the dissociation rate.

[8] = target: T4, human CD30L expressed on B16 cells; experiment: flow cytometry, binding to B16 cells expressing human CD30L (MFI)
[9] = target: T4, human CD30L expressed on B16 cells; experiment: cell-based or functional assay
[10] = target: T5, cynomolgus CD30L expressed on HEK293 …; experiment: cell-based or functional assay
[11] = target: T1, recombinant human CD30L; experiment: ELISA, binding to purified rhCD30L
[12] = target: T2, recombinant cynomolgus CD30L; experiment: ELISA, binding to purified rcyCD30L
[13] = target: T4, human CD30L expressed on B16 cells; experiment: flow cytometry, binding to B16-rhCD30L cells
[14] = target: T5, cynomolgus CD30L expressed on HEK293 …; experiment: flow cytometry, binding to HEK293-cyCD30L cells
[15] = target: T1, recombinant human CD30L; experiment: ELISA, blocking of CD30-Fc on huCD30L; competitor CD30-Fc
[16] = target: T2, recombinant cynomolgus CD30L; experiment: ELISA, blocking of CD30-Fc on rcyCD30L; competitor CD30-Fc
[17] = target: T4, human CD30L expressed on B16 cells; experiment: flow cytometry, blocking of CD30-Fc on B16-huCD30L cells; competitor CD30-Fc
[18] = target: T5, cynomolgus CD30L expressed on HEK293 …; experiment: flow cytometry, blocking of CD30-Fc on HEK293-cyCD30L cells; competitor CD30-Fc
[19] = target: T6, CDH13; experiment: cell microarray, library and confirmation screens
[20] = target: T7, recombinant cynomolgus CD30L protein; experiment: ELISA, 1/50 dil
[21] = target: T7, recombinant cynomolgus CD30L protein; experiment: ELISA, 1/500 dil
[22] = target: T7, recombinant cynomolgus CD30L protein; experiment: ELISA, 1/5000 dil
[23] = target: T8, recombinant human CD30L protein; experiment: ELISA, CD30 competitor, undil
[24] = target: T8, recombinant human CD30L protein; experiment: ELISA, CD30 competitor, 1/10 dil
[25] = target: T8, recombinant human CD30L protein; experiment: ELISA, CD30 competitor, 1/100 dil
[26] = target: T8, recombinant human CD30L protein; experiment: ELISA, CD30 competitor, 1/1000 dil

rhCD30L (+) ELISA [1]	rcyCD30L (+) ELISA [2]	rmCD30L (+) ELISA [3]	IC50 [4]	EC50 (read off the curve) [5]	hCD30L B16 (+) FLOW [6]	rhCD30L:rhCD30 Blocking [7]	EC50 (read off the curve) [8]	also measured	Binder
1.87	0.724	0.046	3.18 nM	~0.1 nM	6.07e+06	0.0592	~1 nM	–	anti-CD30L antibody clone 63 (antibody, V domains shown, purified recombinant IgG (held by anti-human biosensors); mouse strain #1) VH: EVQLVESGGGLVQPGGSLRLSCAASGFMFSSYSMNWVRQAPGKGLEWVSYISSSSSTIYDADSVKGRFTISRDDAKNSLYLQMNSLRDEDTAVYYCTREAYPGYYYNYMDVWGKGTTVTVSS VL: DIQMTQSPSSLSASVGDRVTITCRASQSISSRLAWYQQKPGKAPNLLIYKASNLESGVPSRFSGSGSGTEFTLTISSLQPDDFATYYCQQYNSYSRTFGQGTKVEIK
–	–	–	–	–	–	–	–	Inhibition of IL-8 release in a dual cell assay (B16-huCD30L cells + K299 cells) IC50 [9]: 1.43 nM; Inhibition of IL-8 release in a dual cell assay (HEK293-cyCD30L cells + K299 cells) IC50 [10]: 0.39 nM; EC50 [11]: 0.05 nM; EC50 [12]: 0.07 nM; EC50 [13]: 1.11 nM; EC50 [14]: 0.67 nM; IC50 [15]: 2.14 nM; IC50 [16]: 1.58 nM; IC50 [17]: 1.06 nM; IC50 [18]: 0.51 nM	anti-CD30L antibody clone 1 (antibody, V domains shown, also called clone 1 parental) VH: QVQLQESGPGLVKPSETLSLTCTVSGGSISGYYWSWIRQPPVKGLEWIGYIFYSGYTKYNPSLKSRVTISVDTSKNQFSLKLSSVTAADTAVYYCARDRWDFDYWGQGALVTVSS VL: AIQMTQSPSYLSASVGDRVTIACRASQGIRNNLGWYQQKPGKAPKLLIYAESSLQSGVPSRFSGSGSGTDFTLTISSLQPEDFATYYCLQDFNYPYTFGQGTKLEIK
–	–	–	–	–	–	–	–	binding result [19]: no binding (tested: 5 µg/mL)	anti-CD30L antibody clone 1 with IgG1 constant region SEQ ID NO: 502 (antibody, V domains shown, copies: 2 + 2) VH: QVQLQESGPGLVKPSETLSLTCTVSGGSISGYYWSWIRQPPVKGLEWIGYIFYSGYTKYNPSLKSRVTISVDTSKNQFSLKLSSVTAADTAVYYCARDRWDFDYWGQGALVTVSS VL: AIQMTQSPSYLSASVGDRVTIACRASQGIRNNLGWYQQKPGKAPKLLIYAESSLQSGVPSRFSGSGSGTDFTLTISSLQPEDFATYYCLQDFNYPYTFGQGTKLEIK
–	–	–	–	–	–	–	–	binding result [19]: no binding (tested: 5 µg/mL)	anti-CD30L antibody clone 1 germlined with IgG1 constant region SEQ ID NO: 502 (antibody, V domains shown, copies: 2 + 2) VH: QVQLQESGPGLVKPSETLSLTCTVSGGSISGYYWSWIRQPPGKGLEWIGYIFYSGYTKYNPSLKSRVTISVDTSKNQFSLKLSSVTAADTAVYYCARDRWDFDYWGQGTLVTVSS VL: AIQMTQSPSSLSASVGDRVTITCRASQGIRNNLGWYQQKPGKAPKLLIYAESSLQSGVPSRFSGSGSGTDFTLTISSLQPEDFATYYCLQDFNYPYTFGQGTKLEIK
2.04	0.951	0.049	3.17 nM	~0.1 nM	5.67e+06	0.0633	~1 nM	–	anti-CD30L antibody clone 64 (antibody, V domains shown, purified recombinant IgG (held by anti-human biosensors); mouse strain #1) VH: EVQLVESGGGLVQPGGSLRLSCAASGFTFSNYAMTWVRQAPGKGLEWVSAISGFGGSTYYADSVKGRFTISRDNSKNTLYLQMNSLRAEDTAVYYCAKDHDYYAFDYWGQGTLVTVSS VL: not shown
1.97	1.38	0.047	3.66 nM	~0.1 nM	6.91e+06	0.0522	~1 nM	–	anti-CD30L antibody clone 65 (antibody, V domains shown, purified recombinant IgG (held by anti-human biosensors); mouse strain #1) VH: EVQLVESGGGLVQPGGSLKLSCAASGFTFSNYAMTWVRQAPGKGLEWVSAISGYGGSTYYAASVKGRFTISRDNSKNTLFLQMNSLRAEDTAVYYCAKDHDYYAFDYWGQGTLVPVSS VL: not shown
–	–	–	–	–	–	–	–	Elisa Binding (OD) [20]: 2.58 OD; Elisa Binding (OD) [21]: 2.38 OD; Elisa Binding (OD) [22]: 0.583 OD; % inhibition [23]: 98%; % inhibition [24]: 96%; % inhibition [25]: 10%; % inhibition [26]: 0%	Clone 4 (antibody, V domains shown, Hybridoma screening sample; also called CLONE_4 (parental)) VH: QVQLVESGGGVVQPGRSLRLSCAASGFPFSSYGMHWVRQAPGKGLEWVTFIWFDGNNKDYADSVKGRFSVSRDNSKNTLYLQMNSLRADDTAVYYCARNGVYYGSGAYVDYWGQGTLVTVSS VL: not shown
